Experimental data published in patent WO2012172495A1 (dated 2012).

How the values were obtained:
[1] = biological target: T1, human TEM8 on transfected HEK-293 cells (293/Flag-hTEM8) (human, UniProt Q9H6X2 33-564); experiment: immunofluorescence microscopy, 10 ug/ml Fab on HEK-293 cells transfected with human TEM8, against untransfected HEK-293
T1 construct: also called HEK-293 transfected with human TEM8

[2] = biological target: T2, purified recombinant hTEM8(ED)-Fc fusion protein, biotinylated (human, UniProt Q9H6X2 33-321, biotinylated (site not stated)); experiment: ELISA, Fab on biotinylated human TEM8-Fc
T2 construct: also called human TEM8-Fc
T2 sequence: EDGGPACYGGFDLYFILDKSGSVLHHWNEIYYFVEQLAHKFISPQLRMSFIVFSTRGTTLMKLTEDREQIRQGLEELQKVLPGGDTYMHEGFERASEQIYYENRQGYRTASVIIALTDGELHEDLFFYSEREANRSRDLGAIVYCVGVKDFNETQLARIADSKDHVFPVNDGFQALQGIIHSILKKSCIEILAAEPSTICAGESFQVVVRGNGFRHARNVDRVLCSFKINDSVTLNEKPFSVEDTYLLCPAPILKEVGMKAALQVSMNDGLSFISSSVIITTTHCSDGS

B1: L5 Fab fragment (Anti-human TEM8_cl4) (Fab, V domains shown)
VH: QVQLVESGGGLVQPGGSLRLSCAASGFTFNSYGLSWVRQAPGKGLEWVSNISSNGSYTYYADSVKGRFTISRDNSKNTLYLQMNSLRAEDTAVYYCARAGYGLFDVWGQGTLVTVSS
VL: DIELTQPPSVSVAPGQTARISCSGDKLREYYVHWYQQKPGQAPVLVIYGDNKRPSGIPERFSGSNSGNTATLTISGTQAEDEADYYCSSWAGSRSGTVFGGGTKLTVL
notes: Tested as a purified Fab fragment; The light chain is lambda
binding result [1]: binds
binding result [2]: binds
